Source: patent US20120100139A1 (APTEVO RESEARCH AND DEVELOPMENT, published 2012)
Values belong to the binder of their own block, whether it stands above or below them.

Experiments:
[1] = molecular target: T1, CD86 on cells (WIL2-S human B-lymphoblastoid cells; HuCD86-2A2 CHO cells expressing CD86) (human, UniProt P42081 24-329); assay: flow cytometry, supernatants of transfected HEK293 cells on HuCD86-2A2 cells
T1 construct: whole, on cells; also called cell surface CD86
T1 sequence (looked up): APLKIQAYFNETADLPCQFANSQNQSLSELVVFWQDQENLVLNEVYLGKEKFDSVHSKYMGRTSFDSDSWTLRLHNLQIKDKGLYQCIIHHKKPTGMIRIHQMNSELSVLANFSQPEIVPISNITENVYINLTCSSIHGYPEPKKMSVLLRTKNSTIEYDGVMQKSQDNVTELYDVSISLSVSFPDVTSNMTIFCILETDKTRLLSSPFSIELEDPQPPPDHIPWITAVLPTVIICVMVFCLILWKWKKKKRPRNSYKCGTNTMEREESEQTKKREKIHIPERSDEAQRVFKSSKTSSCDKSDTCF
Protocol: Briefly, WIL2-S or HuCD86-2A2 cells were incubated with test molecules containing a CD86 antagonist at concentrations ranging from saturation to background levels. […] After the incubation, cells were washed and a fluorophore (R-phycoerythrin) tagged F(Ab′)₂ antibody specific for the Fc portion of the xceptor molecule, IL10R-Ig fusion protein, or anti-IL10 antibody. The tagged cells were then passed through a flow cytometer and data was analyzed by plotting median fluorescence intensity of each sample.
In another experiment, different versions of humanized FUN1 SMIPs were tested for CD86 binding. Supernatants of HEK293 cells transiently transfected with the six different versions of humanized FUN1 SMIPs were examined for CD86 binding using HuCD86-2A2 cells.

[2] = molecular target: T2, CD80-mIg (Ancell Catalog #510-020) (UniProt P33681 35-242); assay: SPR (BIAcore T100), CD80-mIgG immobilized on CM5; steady-state equilibrium fit
T2 construct: Bought reagent; also called CD80-mIgG; sCD80
T2 sequence (looked up): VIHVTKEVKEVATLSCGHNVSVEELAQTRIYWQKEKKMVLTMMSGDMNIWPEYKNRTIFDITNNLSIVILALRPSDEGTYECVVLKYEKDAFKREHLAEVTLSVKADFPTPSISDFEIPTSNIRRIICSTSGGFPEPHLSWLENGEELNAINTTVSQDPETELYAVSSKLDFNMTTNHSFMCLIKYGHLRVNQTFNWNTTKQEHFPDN
Protocol: (§1) Surface plasmon resonance (SPR) measurements were performed on a BIAcore™ T100 SPR (Pharmacia Biotech AB, Uppsala) using HBS-EP+ (GE Healthcare) as a running buffer. […] CTLA4-containing constructs were injected for 150 seconds, at a flow rate of 10 μl/min, in a series of concentrations from 5 nM to 1 μM. Dissociation was monitored for 600 seconds, and the surface was regenerated by injecting 50 mM sodium citrate, 500 mM sodium chloride, pH 4.0, for 60 seconds. […] Data were analyzed using BiaEvaluation for the T100 software (version 2.0.1, GE Healthcare).

[3] = molecular target: T3, Murine CD86-mIgG (R&D Systems, Inc) (murine, UniProt P42082 24-244, limits assumed); assay: SPR (BIAcore T100), murine CD86-mIgG immobilized on CM5; bivalent analyte model, second site
T3 construct: also called muCD86
T3 sequence (looked up): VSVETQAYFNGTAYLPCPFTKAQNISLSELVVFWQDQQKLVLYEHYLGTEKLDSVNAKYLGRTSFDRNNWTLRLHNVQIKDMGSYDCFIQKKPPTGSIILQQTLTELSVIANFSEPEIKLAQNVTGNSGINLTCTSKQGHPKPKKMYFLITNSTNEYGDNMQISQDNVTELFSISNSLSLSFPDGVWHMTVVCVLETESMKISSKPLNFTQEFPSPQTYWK
Protocol: (§2) SPR measurements were performed on a BIAcore™ T100 SPR (Pharmacia Biotech AB, Uppsala) using HBS-EP+ (GE Healthcare) as a running buffer. Murine CD86-mIgG (25 μg/mL in 10 mM sodium acetate, pH 4.0, R&D Systems, Inc) was directly immobilized onto a CM5 chip using standard amine coupling chemistry (Biacore Amine Coupling Kit, GE Healthcare), with final immobilization levels of 150, 493, and 746 Ru. CTLA4-containing constructs were injected for 150 seconds, at a flow rate of 10 μl/min, in a series of concentrations from 4 nM to 8 μM. Dissociation was monitored for 600 seconds (CTLA4 constructs) or 1200 seconds (GL1 constructs), and the surface was regenerated by injecting 10 mM glycine, pH 1.7, for 60 seconds. […] Data were analyzed using BiaEvaluation for the T100 software (version 2.0.1, GE Healthcare).

CD86-mIgG (Ancell, Inc) [4] = molecular target: T4, CD86-mIgG (Ancell, Inc) (UniProt P42081 24-247, limits assumed); assay: SPR (BIAcore T100), CD86-mIgG immobilized on CM5; bivalent analyte model, first site
T4 construct: Bought reagent
T4 sequence (looked up): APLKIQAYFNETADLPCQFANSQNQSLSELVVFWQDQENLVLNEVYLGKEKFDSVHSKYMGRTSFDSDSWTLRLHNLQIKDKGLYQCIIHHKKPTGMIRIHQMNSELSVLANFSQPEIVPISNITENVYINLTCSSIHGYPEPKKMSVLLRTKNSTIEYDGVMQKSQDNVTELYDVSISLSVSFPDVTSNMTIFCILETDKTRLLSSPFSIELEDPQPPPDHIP
Protocol: (§3) SPR measurements were performed on a BIAcore™ T100 SPR (Pharmacia Biotech AB, Uppsala) using HBS-EP+ (GE Healthcare) as a running buffer. […] CTLA4-containing constructs were injected for 150 seconds, at a flow rate of 10 μl/min, in a series of concentrations from 4 nM to 10 μM. Dissociation was monitored for 600 seconds, and the surface was either regenerated by injecting 50 mM sodium citrate, 500 mM sodium chloride, pH 5.0, for 60 seconds (wild type CTLA4) or 10 mM glycine, pH 1.7 (L104E A29Y CTLA4). […] Data were analyzed using BiaEvaluation for the T100 software (version 2.0.1, GE Healthcare).

[5] = molecular target: T2, CD80-mIg (Ancell Catalog #510-020); assay: SPR (BIAcore T100), CD80-mIgG immobilized on CM5; bivalent analyte model, second site
Protocol: as §1

[6] = molecular target: T3, Murine CD86-mIgG (R&D Systems, Inc); assay: SPR (BIAcore T100), murine CD86-mIgG immobilized on CM5; bivalent analyte model, first site
Protocol: as §2

[7] = molecular target: T3, Murine CD86-mIgG (R&D Systems, Inc); assay: SPR (BIAcore T100), murine CD86-mIgG immobilized on CM5; steady-state equilibrium, multiple Rmax fit
Protocol: as §2

[8] = molecular target: T2, CD80-mIg (Ancell Catalog #510-020); assay: SPR (BIAcore T100), CD80-mIgG immobilized on CM5; bivalent analyte model, first site
Protocol: as §1

CD86-mIgG (Ancell, Inc) [9] = molecular target: T4, CD86-mIgG (Ancell, Inc); assay: SPR (BIAcore T100), CD86-mIgG immobilized on CM5; steady-state equilibrium fit
Protocol: as §3
SPR measurements were performed as listed above, with the following exceptions: HBS-P+ (GE Healthcare) was used as a running buffer; dissociation was monitored for 1200 seconds; and the surface was regenerated by injecting 10 mM glycine, pH 1.7, for 60 seconds.

[10] = molecular target: T3, Murine CD86-mIgG (R&D Systems, Inc); assay: SPR (BIAcore T100), murine CD86-mIgG immobilized on CM5; steady-state equilibrium fit
Protocol: as §2

B1: FUN1-31 humanized FUN1 SMIP (Fc fusion)
chain: QVQLVESGGGLVKPGGSLRLSCAASGFTFSDYNMNWIRQAPGKGLEWVSNIDPYYGGTSYNQKFKGRFTISRDNAKNSLYLQMNSLRAEDTAVYYCARWDYRYDDGRAYYVMDFWGQGTTVTVSSGGGGSGGGGSGGGGSGGGGSDIVMTQSPDSLAVSLGERATINCKSSQSVLYSSNQKNYLAWYQQKPGQPPKLLIYWASTRESGVPDRFSGSGSGTDFTLTISSLQAEDVAVYYCHQYLYSWTFGQGTKLEIKRLEPKSSDKTHTCPPCPAPEAAGAPSVFLFPPKPKDTLMISRTPEVTCVVVDVSHEDPEVKFNWYVDGVEVHNAKTKPREEQYNSTYRVVSVLTVLHQDWLNGKAYACAVSNKALPAPIEKTISKAKGQPREPQVYTLPPSRDELTKNQVSLTCLVKGFYPSDIAVEWESNGQPENNYKTTPPVLDSDGSFFLYSKLTVDKSRWQQGNVFSCSVMHEALHNHYTQKSLSLSPG
binding result [1]: no binding

B2: CTLA4-Fc fusion containing the L104E A29Y mutations, analogous to belatacept (Fc fusion)
chain: MHVAQPAVVLASSRGIASFVCEYASPGKYTEVRVTVLRQADSQVTEVCAATYMMGNELTFLDDSICTGTSSGNQVNLTIQGLRAMDTGLYICKVELMYPPPYYEGIGNGTQIYVIDPEPCPDSDLEPKSSDKTHTCPPCPAPEAAGAPSVFLFPPKPKDTLMISRTPEVTCVVVDVSHEDPEVKFNWYVDGVEVHNAKTKPREEQYNSTYRVVSVLTVLHQDWLNGKAYACAVSNKALPAPIEKTISKAKGQPREPQVYTLPPSRDELTKNQVSLTCLVKGFYPSDIAVEWESNGQPENNYKTTPPVLDSDGSFFLYSKLTVDKSRWQQGNVFSCSVMHEALHNHYTQKSLSLSPG
notes: the mutations are in the entry
Kd [2]: 13.3 nM
Second Site ka [3]: 0.0728 s⁻¹
Second Site kd [3]: 0.168 s⁻¹
koff (CD86-mIgG (Ancell, Inc) [4]): 0.0102 s⁻¹
kon (CD86-mIgG (Ancell, Inc) [4]): 84700 M⁻¹ s⁻¹
Second Site ka [5]: 0.00102 s⁻¹
Second Site kd [5]: 0.00332 s⁻¹
koff [6]: 0.0787 s⁻¹
kon [6]: 27800 M⁻¹ s⁻¹
Kd [7]: 920 nM
koff [8]: 0.00373 s⁻¹
kon [8]: 155000 M⁻¹ s⁻¹
Kd (CD86-mIgG (Ancell, Inc) [9]): 772 nM

B4: FUN1-12 humanized FUN1 SMIP (Fc fusion)
chain: EVQLVQSGAEVKKPGATVKISCKVSGYTFTDYNMNWVQQAPGKGLEWMGNIDPYYGGTSYNQKFKGRVTITADTSTDTAYMELSSLRSEDTAVYYCATWDYRYDDGRAYYVMDFWGQGTTVTVSSGGGGSGGGGSGGGGSGGGGSDIQMTQSPSSLSASVGDRVTITCKSSQSVLYSSNQKNYLAWYQQKPGKVPKLLIYWASTRESGVPSRFSGSGSGTDFTLTISSLQPEDVATYYCHQYLYSWTFGQGTKLEIKRLEPKSSDKTHTCPPCPAPEAAGAPSVFLFPPKPKDTLMISRTPEVTCVVVDVSHEDPEVKFNWYVDGVEVHNAKTKPREEQYNSTYRVVSVLTVLHQDWLNGKAYACAVSNKALPAPIEKTISKAKGQPREPQVYTLPPSRDELTKNQVSLTCLVKGFYPSDIAVEWESNGQPENNYKTTPPVLDSDGSFFLYSKLTVDKSRWQQGNVFSCSVMHEALHNHYTQKSLSLSPG
binding result [1]: no binding

Second part, the binder after the results:

binding result [1]: no binding
B3: FUN1-32 humanized FUN1 SMIP (Fc fusion)
chain: QVQLVESGGGLVKPGGSLRLSCAASGFTFSDYNMNWIRQAPGKGLEWVSNIDPYYGGTSYNQKFKGRFTISRDNAKNSLYLQMNSLRAEDTAVYYCARWDYRYDDGRAYYVMDFWGQGTTVTVSSGGGGSGGGGSGGGGSGGGGSDIQMTQSPSSLSASVGDRVTITCKSSQSVLYSSNQKNYLAWYQQKPGKVPKLLIYWASTRESGVPSRFSGSGSGTDFTLTISSLQPEDVATYYCHQYLYSWTFGQGTKLEIKRLEPKSSDKTHTCPPCPAPEAAGAPSVFLFPPKPKDTLMISRTPEVTCVVVDVSHEDPEVKFNWYVDGVEVHNAKTKPREEQYNSTYRVVSVLTVLHQDWLNGKAYACAVSNKALPAPIEKTISKAKGQPREPQVYTLPPSRDELTKNQVSLTCLVKGFYPSDIAVEWESNGQPENNYKTTPPVLDSDGSFFLYSKLTVDKSRWQQGNVFSCSVMHEALHNHYTQKSLSLSPG
notes: SMIP: scFv-hinge-Fc single chain

Second Site ka [3]: 0.0271 s⁻¹
Second Site kd [3]: 0.088 s⁻¹
koff [6]: 4.4e-05 s⁻¹
kon [6]: 67300 M⁻¹ s⁻¹
Kd [10]: 95.1 nM
B5: IL10::GL1 xceptor (Fc fusion)
chain: SPGQGTQSENSCTHFPGNLPNMLRDLRDAFSRVKTFFQMKDQLDNLLLKESLLEDFKGYLGCQALSEMIQFYLEEVMPQAENQDPDIKAHVNSLGENLKTLRLRLRRCHRFLPCENKSKAVEQVKNAFNKLQEKGIYKAMSEFDIFINYIEAYITMKIRNLEPKSSDKTHTCPPCPAPEAAGAPSVFLFPPKPKDTLMISRTPEVTCVVVDVSHEDPEVKFNWYVDGVEVHNAKTKPREEQYNSTYRVVSVLTVLHQDWLNGKAYACAVSNKALPAPIEKTISKAKGQPREPQVYTLPPSRDELTKNQVSLTCLVKGFYPSDIAVEWESNGQPENNYKTTPPVLDSDGSFFLYSKLTVDKSRWQQGNVFSCSVMHEALHNHYTQKSLSLSPGNSLFNQEVQIPLTESYSPNSEVQLVESAGGLVQPGRSLKLSCAASGFTFSDYYMAWVRQAPTKGLEWVATISHDGSSTYYRDSVKGRFTISRDNAKTILYLQMDSLRSEDTATYFCARQNIMDYWGQGVMVTVSSGGGGSGGGGSGGGGSGGGGSDIVMTQTPSSQAVSAGEKVTMSCKSSQSLLYSRDQSNYLAWYQQKPGQSPKLLIYLASTRESGVPDRFIGSGSGTDFTLTISSVQAEDLADYYCQQHYNYPLTFGSGTKLEIK
